According to article PMC3621763, “Adenoviral Gene Transfer of PLD1-D4 Enhances Insulin Sensitivity in Mice by Disrupting Phospholipase D1 Interaction with PED/PEA-15” (PLoS ONE, 2013):

Target: T1, PED/PEA-15 over-expressed in transgenic Tg_(Ped/pea-15) mice (UniProt Q15121 1-130)
T1 construct: PED/PEA-15 expressed from the transgene of Tg_(Ped/pea-15) mice; The precipitate from transgenic muscle holds the transgene's product together with the endogenous mouse protein; source: transgenic mice with ubiquitous over-expression of Ped/pea-15, tibialis skeletal muscle lysate
Experiment: co-IP; tibialis skeletal muscle lysate (0.5-1 mg) of Wt and Tg_(Ped/pea-15) mice, precleared with pre-immune serum, anti-PED/PEA-15 antibody overnight at 4°C, protein A sepharose, blot with anti-PLD1
Settings: partners not purified

T1 sequence (Q15121 whole entry): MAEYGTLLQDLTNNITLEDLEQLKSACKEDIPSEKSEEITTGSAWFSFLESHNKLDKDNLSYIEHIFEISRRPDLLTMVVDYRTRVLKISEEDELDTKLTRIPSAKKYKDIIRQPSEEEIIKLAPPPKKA

B1: Phospholipase D1 (PLD1), endogenous in mouse skeletal muscle (enzyme, UniProt Q9Z280 1-1074, looked up)
chain: MSLKSETRVNTSTLQKIAADMSNLIENLDTRELHFEGEEVEYDASPGDPKAQEGCIPFSSIYNTQGFKEPNIQTYLSGCPIKAQVLEVERFTSTSRVPSINLYTIELTHGEFTWQVKRKFKHFQEFHRELLKYKAFIRIPIPTKRHTFRRQNVKEEPREMPSLPRSSENAIQEEQFFGRRKQLEDYLTKILKMPMYRNYHATTEFLDVSQLSFIHDLGPKGLEGMIMKRSGGHRIPGVNCCGHGRACYRWSKRWLIVKDSFLLYMKPDSGAIAFVLLVDKEFRVKVGRKETETKYGLRIDNLSRTLILKCNSYRHARWWGGAIEEFIRKHGADFLKDHRFGSYAALHENTLAKWYVNAKGYFEDIANAMEEASEEIFITDWWLSPEIFLKRPVVEGNRWRLDCILKRKAQQGVRIFIMLYKEVELALGINSEYSKRTLMRLHPNIKVMRHPDHVSSSVYLWAHHEKLVIIDQSVAFVGGIDLAYGRWDDNEHRLTDVGSVKRVTSGLSLGSLTAASVESMESLSLKDKHEFHKKEPISKIVDETDMKLKGIGKSRKFSKFSLYRQLHRHHLHNADSISSIDSTSSYFSHCRSHQNLIHGLKPHLKLFHPSSESEQGLTRHSTDTGSIRSVQTGVGELHGETRFWHGKDYCNFVFKDWVQLDKPFADFIDRYSTPRMPWHDIGSVVHGKAARDVARHFIQRWNFTKIMKPKYRSLSYPFLLPKSQATAHELRYQVPGAVPAKVQLLRSAADWSAGIKHHEESIHAAYIHVIENSKHYIYIENQFFISCADDKVVFNKVGDRIAQRILKAHREGQRYRVYIVIPLLPGFEGDISTGGGNALQAIMHFNYRTMCRGESSILEQLKPELGNKWINYISFCGLRTHAELEGNLVTELIYVHSKLLIADDNTVIIGSANINDRSMLGKRDSEMAVIVQDTETVPSVMDGKEYQAGRFARDLRLECFRLVLGYLSDPSEDLQDPVSDKFFKEIWVSTAARNATIYDKVFRCLPNDEVHNLIQLRDFINKPILAKEDALRAEEELRKIRGFLVQFPLYFLSEENLLPSVGTKEAIVPMEVWT
notes: Phospholipase D1, endogenous protein of mouse skeletal muscle; Detected by blot with an anti-PLD1 antibody in the anti-PED/PEA-15 precipitate; source: endogenous, tibialis skeletal muscle lysate of Wt and Tg_(Ped/pea-15) mice
B1 was tested, and the “fold increase of the co-precipitated interaction against Wt mice” value was 4 fold.
